Measurements published in patent publication US20160032278A1.
pKd: −log10 of the molar value.

Assays:
papain [1] = biological target: papain (UniProt P00784); test: SPR, cystatin immobilised on NTA chip via His tag, papain in solution
papain [2] = biological target: papain (UniProt P00784); test: cell-based or functional assay
papain [3] = biological target: papain (UniProt P00784); test: SPR; text value differs from Table 3 (4.7 × 10^-9)

Sequence of papain (P00784 134-345 limits assumed): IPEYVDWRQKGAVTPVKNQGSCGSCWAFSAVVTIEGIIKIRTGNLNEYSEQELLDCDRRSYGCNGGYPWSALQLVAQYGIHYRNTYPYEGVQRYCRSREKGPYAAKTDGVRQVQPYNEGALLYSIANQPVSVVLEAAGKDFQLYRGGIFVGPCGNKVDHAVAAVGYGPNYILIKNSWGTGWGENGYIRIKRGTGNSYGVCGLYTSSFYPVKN

## CPA (papaya cystatin, Carcia papaya)
Papain [1]
  Ka: 5e+07 M⁻¹
  pKd: 7.70
  koff: 0.0052 s⁻¹
  kon: 260000 M⁻¹ s⁻¹

## OSA-IΔD86 (modified oryzacystatin I lacking residue Asp86) (from UniProt P09229 39-140)
Papain [1]
  Ka: 2.1e+08 M⁻¹
  pKd: 8.33
  koff: 0.0012 s⁻¹
  kon: 260000 M⁻¹ s⁻¹
Papain [2]
  IC50, papain inhibition (substrate pGlu-Phe-Leu-p-nitroanilide): 1.8e-07 M
Papain [3]
  pKd: 7.33

## CUN (satsuma orange cystatin, Citrus unshiu)
Papain [1]
  Ka: 7.3e+07 M⁻¹
  pKd: 7.85
  koff: 0.0035 s⁻¹
  kon: 260000 M⁻¹ s⁻¹
